Drawing on patent US20110046207, this text covers Kd for nine sequences.

In this data set the target is T1, biotinylated human D-C5a (mirror-image C5a) (Homo sapiens) (UniProt P01031).
T1 sequence: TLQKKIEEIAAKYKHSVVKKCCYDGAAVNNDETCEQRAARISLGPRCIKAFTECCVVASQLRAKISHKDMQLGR
Description: pulldown.

Some results are limits rather than exact numbers.

The Kd is the concentration at which binding is half-saturated. Higher therefore signals weaker binding. Regarding “GUGCUGAACACGCCGCGUAGGACUUCAAUGGAGUAGAAUGGGCAGCAC [179-A3]”, where the note is “37 C, 1 mM MgCl2, 1 mM CaCl2”, the Kd turned out to be 7.2 nM.

Consider “GUGCUUGUCCGAUUGGCGGCACCCUUGCGGGACUGGGGAGUAC [172-D7-002]”, for which the dissociation constant (Kd) (six base pair terminal helix) came to 108 nM.

“AGCGUGCUUGUCCGAUUGGCGGCACCCUUGCGGGACUGGGGAGUACGCU [172-D7-000]” returned a dissociation constant Kd (37 C, 1 mM MgCl2, 1 mM CaCl2) of 30 nM.

Consider “GUGCUGCGUUCGGACGUGGCAUGUUCCUUGACAAACGGUUGGCAGCAC [182-C5]”, for which, for the setting “37 C, 1 mM MgCl2, 1 mM CaCl2”, the dissociation constant (Kd) worked out at 2.2 nM.

Sequence “GUGCUGGGUUCGGACGUGGCAUGUUCCUUGAUAAACGGUUGCCAGCAC [182-A8]” returned a Kd (37 C, 1 mM MgCl2, 1 mM CaCl2) of 3.2 nM.

Under “reference for type C ranking”, “GCUGAACACGCCGCGUAGGACCCAAUGGGUAGAAUGGGCAGC [179-A3-015]” yielded a dissociation constant Kd of more than 7.2 nM.

In turn, “GCUGGGCGUGUUUACUUGCUUAAUAGGGGGCCCAGC [185-H3-001]” displayed a dissociation constant Kd (37 C, 1 mM MgCl2, 1 mM CaCl2) of 5 nM.

Consider “GUACUGCGUUCGGACGUGGCAUGUUCCUUGACAAACGGUUGGCAGUAC [182-E5]”, for which the Kd (37 C, 1 mM MgCl2, 1 mM CaCl2) was found to be 2.4 nM.

“AGCGUGCUCGUCCGAUUGGCGGCACCCUUGCGGGACUGGGGAGUACGCU [172-D7-003]”: where the note is “U to C at 3' end of 5'-terminal stretch”, the dissociation constant (Kd) was 372 nM.
